Data published in PMC10786891, “Massively parallel profiling of RNA-targeting CRISPR-Cas13d”.

T1: EsCas13d, nuclease-dead (Eubacterium siraeum, UniProt B0MS50, R295A;H300A;R849A;H854A)
T1 sequence: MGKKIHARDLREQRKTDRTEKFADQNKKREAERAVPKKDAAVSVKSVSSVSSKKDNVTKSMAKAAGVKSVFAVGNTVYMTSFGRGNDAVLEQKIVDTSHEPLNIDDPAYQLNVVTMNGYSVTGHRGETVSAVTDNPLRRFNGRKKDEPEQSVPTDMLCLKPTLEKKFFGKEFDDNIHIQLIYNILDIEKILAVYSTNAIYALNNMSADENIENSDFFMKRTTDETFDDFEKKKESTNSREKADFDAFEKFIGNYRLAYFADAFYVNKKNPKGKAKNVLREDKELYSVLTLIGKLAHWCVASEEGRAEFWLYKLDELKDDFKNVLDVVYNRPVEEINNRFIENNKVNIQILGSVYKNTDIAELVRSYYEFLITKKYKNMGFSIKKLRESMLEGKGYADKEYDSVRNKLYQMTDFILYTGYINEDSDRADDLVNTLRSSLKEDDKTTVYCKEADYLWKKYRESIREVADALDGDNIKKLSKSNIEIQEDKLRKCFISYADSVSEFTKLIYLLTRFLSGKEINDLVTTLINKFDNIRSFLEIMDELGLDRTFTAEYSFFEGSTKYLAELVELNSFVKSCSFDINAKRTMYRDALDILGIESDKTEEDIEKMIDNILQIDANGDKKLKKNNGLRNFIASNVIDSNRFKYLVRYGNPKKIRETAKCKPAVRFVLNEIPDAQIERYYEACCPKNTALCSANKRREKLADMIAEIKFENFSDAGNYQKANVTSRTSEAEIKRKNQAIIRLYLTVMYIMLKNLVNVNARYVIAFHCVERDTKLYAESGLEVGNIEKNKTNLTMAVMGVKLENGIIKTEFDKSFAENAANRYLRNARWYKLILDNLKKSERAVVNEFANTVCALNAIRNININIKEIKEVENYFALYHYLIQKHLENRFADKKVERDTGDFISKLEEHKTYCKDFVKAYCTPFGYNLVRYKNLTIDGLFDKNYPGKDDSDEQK

B1: target 2 MT 5'PFS GAG 3'PFS AUG (mixed)
RNA 1: CACCCGUGCAAAAUUGCAGGGGUCUAAAACCUUCUCCAAAUUGUUUCAUCCU
RNA 2: GGGAAUGGAUCCACAUCUACGAAUUCGAGAGGAUGAAACAAUUUGGAGAAGAUGAGAUCGGAAGAGCACACGU
B2: target 2 MT 5'PFS ACA 3'PFS AAA (mixed)
RNA 1: CACCCGUGCAAAAUUGCAGGGGUCUAAAACCUUCUCCAAAUUGUUUCAUCCU
RNA 2: GGGAAUGGAUCCACAUCUACGAAUUCACAAGGAUGAAACAAUUUGGAGAAGAAAAGAUCGGAAGAGCACACGU
B3: target 2 MT 5'PFS ACA 3'PFS AAG (mixed)
RNA 1: CACCCGUGCAAAAUUGCAGGGGUCUAAAACCUUCUCCAAAUUGUUUCAUCCU
RNA 2: GGGAAUGGAUCCACAUCUACGAAUUCACAAGGAUGAAACAAUUUGGAGAAGAAGAGAUCGGAAGAGCACACGU
B4: target 2 MT 5'PFS CAC 3'PFS CUC (mixed)
RNA 1: CACCCGUGCAAAAUUGCAGGGGUCUAAAACCUUCUCCAAAUUGUUUCAUCCU
RNA 2: GGGAAUGGAUCCACAUCUACGAAUUCCACAGGAUGAAACAAUUUGGAGAAGCUCAGAUCGGAAGAGCACACGU
B5: target 2 MT 5'PFS UUG 3'PFS CAG (mixed)
RNA 1: CACCCGUGCAAAAUUGCAGGGGUCUAAAACCUUCUCCAAAUUGUUUCAUCCU
RNA 2: GGGAAUGGAUCCACAUCUACGAAUUCUUGAGGAUGAAACAAUUUGGAGAAGCAGAGAUCGGAAGAGCACACGU
B6: target 2 MT 5'PFS CAC 3'PFS CUU (mixed)
RNA 1: CACCCGUGCAAAAUUGCAGGGGUCUAAAACCUUCUCCAAAUUGUUUCAUCCU
RNA 2: GGGAAUGGAUCCACAUCUACGAAUUCCACAGGAUGAAACAAUUUGGAGAAGCUUAGAUCGGAAGAGCACACGU
B7: target 2 MT 5'PFS CAG 3'PFS CCG (mixed)
RNA 1: CACCCGUGCAAAAUUGCAGGGGUCUAAAACCUUCUCCAAAUUGUUUCAUCCU
RNA 2: GGGAAUGGAUCCACAUCUACGAAUUCCAGAGGAUGAAACAAUUUGGAGAAGCCGAGAUCGGAAGAGCACACGU
B8: target 2 MT 5'PFS AGU 3'PFS AGU (mixed)
RNA 1: CACCCGUGCAAAAUUGCAGGGGUCUAAAACCUUCUCCAAAUUGUUUCAUCCU
RNA 2: GGGAAUGGAUCCACAUCUACGAAUUCAGUAGGAUGAAACAAUUUGGAGAAGAGUAGAUCGGAAGAGCACACGU
B9: target 2 MT 5'PFS AGU 3'PFS AGG (mixed)
RNA 1: CACCCGUGCAAAAUUGCAGGGGUCUAAAACCUUCUCCAAAUUGUUUCAUCCU
RNA 2: GGGAAUGGAUCCACAUCUACGAAUUCAGUAGGAUGAAACAAUUUGGAGAAGAGGAGAUCGGAAGAGCACACGU
B10: target 2 MT 5'PFS GGA 3'PFS UCC (mixed)
RNA 1: CACCCGUGCAAAAUUGCAGGGGUCUAAAACCUUCUCCAAAUUGUUUCAUCCU
RNA 2: GGGAAUGGAUCCACAUCUACGAAUUCGGAAGGAUGAAACAAUUUGGAGAAGUCCAGAUCGGAAGAGCACACGU
B11: target 2 MT 5'PFS CUG 3'PFS AUG (mixed)
RNA 1: CACCCGUGCAAAAUUGCAGGGGUCUAAAACCUUCUCCAAAUUGUUUCAUCCU
RNA 2: GGGAAUGGAUCCACAUCUACGAAUUCCUGAGGAUGAAACAAUUUGGAGAAGAUGAGAUCGGAAGAGCACACGU
B12: target 2 MT 5'PFS UUC 3'PFS AAC (mixed)
RNA 1: CACCCGUGCAAAAUUGCAGGGGUCUAAAACCUUCUCCAAAUUGUUUCAUCCU
RNA 2: GGGAAUGGAUCCACAUCUACGAAUUCUUCAGGAUGAAACAAUUUGGAGAAGAACAGAUCGGAAGAGCACACGU
B13: target 2 MT 5'PFS UUG 3'PFS CAA (mixed)
RNA 1: CACCCGUGCAAAAUUGCAGGGGUCUAAAACCUUCUCCAAAUUGUUUCAUCCU
RNA 2: GGGAAUGGAUCCACAUCUACGAAUUCUUGAGGAUGAAACAAUUUGGAGAAGCAAAGAUCGGAAGAGCACACGU
B14: target 2 MT 5'PFS CUG 3'PFS AUA (mixed)
RNA 1: CACCCGUGCAAAAUUGCAGGGGUCUAAAACCUUCUCCAAAUUGUUUCAUCCU
RNA 2: GGGAAUGGAUCCACAUCUACGAAUUCCUGAGGAUGAAACAAUUUGGAGAAGAUAAGAUCGGAAGAGCACACGU
B15: target 2 MT 5'PFS UUG 3'PFS CAU (mixed)
RNA 1: CACCCGUGCAAAAUUGCAGGGGUCUAAAACCUUCUCCAAAUUGUUUCAUCCU
RNA 2: GGGAAUGGAUCCACAUCUACGAAUUCUUGAGGAUGAAACAAUUUGGAGAAGCAUAGAUCGGAAGAGCACACGU
B16: target 2 MT 5'PFS CUU 3'PFS AAA (mixed)
RNA 1: CACCCGUGCAAAAUUGCAGGGGUCUAAAACCUUCUCCAAAUUGUUUCAUCCU
RNA 2: GGGAAUGGAUCCACAUCUACGAAUUCCUUAGGAUGAAACAAUUUGGAGAAGAAAAGAUCGGAAGAGCACACGU
B17: target 2 MT 5'PFS GGA 3'PFS UCG (mixed)
RNA 1: CACCCGUGCAAAAUUGCAGGGGUCUAAAACCUUCUCCAAAUUGUUUCAUCCU
RNA 2: GGGAAUGGAUCCACAUCUACGAAUUCGGAAGGAUGAAACAAUUUGGAGAAGUCGAGAUCGGAAGAGCACACGU
B18: target 2 MT 5'PFS CUU 3'PFS AAC (mixed)
RNA 1: CACCCGUGCAAAAUUGCAGGGGUCUAAAACCUUCUCCAAAUUGUUUCAUCCU
RNA 2: GGGAAUGGAUCCACAUCUACGAAUUCCUUAGGAUGAAACAAUUUGGAGAAGAACAGAUCGGAAGAGCACACGU
B19: target 2 MT 5'PFS UUG 3'PFS CAC (mixed)
RNA 1: CACCCGUGCAAAAUUGCAGGGGUCUAAAACCUUCUCCAAAUUGUUUCAUCCU
RNA 2: GGGAAUGGAUCCACAUCUACGAAUUCUUGAGGAUGAAACAAUUUGGAGAAGCACAGAUCGGAAGAGCACACGU
B20: target 2 MT 5'PFS CCC 3'PFS UUA (mixed)
RNA 1: CACCCGUGCAAAAUUGCAGGGGUCUAAAACCUUCUCCAAAUUGUUUCAUCCU
RNA 2: GGGAAUGGAUCCACAUCUACGAAUUCCCCAGGAUGAAACAAUUUGGAGAAGUUAAGAUCGGAAGAGCACACGU
B21: target 2 MT 5'PFS GGA 3'PFS UCA (mixed)
RNA 1: CACCCGUGCAAAAUUGCAGGGGUCUAAAACCUUCUCCAAAUUGUUUCAUCCU
RNA 2: GGGAAUGGAUCCACAUCUACGAAUUCGGAAGGAUGAAACAAUUUGGAGAAGUCAAGAUCGGAAGAGCACACGU
B22: target 1 insG 3' of 2 (mixed)
RNA 1: CACCCGUGCAAAAAUGCAGGGGUCUAAAACUGAGCGGAUAACCUCUCUAUGG
RNA 2: GGGAAUGGAUCCACAUCUACGAAUUCGUACCAUAGAGAGGUUAUCCGCUCGACCGAGAUCGGAAGAGCACACGU
B23: target 1 insA 3' of 10,insA 3' of 3 (mixed)
RNA 1: CACCCGUGCAAAAAUGCAGGGGUCUAAAACUGAGCGGAUAACCUCUCUAUGG
RNA 2: GGGAAUGGAUCCACAUCUACGAAUUCGUACCAUAGAGAGGUUAAUCCGCUACACCGAGAUCGGAAGAGCACACGU
B24: target 1 insA 3' of 21 (mixed)
RNA 1: CACCCGUGCAAAAAUGCAGGGGUCUAAAACUGAGCGGAUAACCUCUCUAUGG
RNA 2: GGGAAUGGAUCCACAUCUACGAAUUCGUACCAAUAGAGAGGUUAUCCGCUCACCGAGAUCGGAAGAGCACACGU

Target: T1, EsCas13d, nuclease-dead
Assay: crRNA (strand 1, pre-loaded); Mg2+; 40 mM Tris-HCl pH 7.5, 150 mM NaCl, 6 mM MgCl2, 1 mM DTT, 0.1% Tween-20, 0.2 mg/ml BSA; 25 C; 10 min per concentration, then washed
Conditions: tags: His6-TwinStrep-SUMO cleaved; N-terminal SNAP kept (SNAP-Surface 488); label: 3' end held by stalled T7 RNA polymerase

Binder | Kd
B1 | 5.9 ± 0.4 nM
B2 | 8.3 ± 1.4 nM
B3 | 10 ± 5 nM
B4 | 2.9 ± 1 nM
B5 | 11.8 ± 0.9 nM
B6 | 2.31 ± 0.3 nM
B7 | 11.9 ± 3 nM
B8 | 6.8 ± 0.7 nM
B9 | 12.3 ± 1.9 nM
B10 | 24.2 ± 2.8 nM
B11 | 3.17 ± 0.32 nM
B12 | 15 ± 4 nM
B13 | 9.9 ± 1.4 nM
B14 | 2.63 ± 0.24 nM
B15 | 9.1 ± 1.2 nM
B16 | 2.9 ± 0.35 nM
B17 | 17.4 ± 2.7 nM
B18 | 4.3 ± 0.5 nM
B19 | 16.4 ± 2.2 nM
B20 | 1.25 ± 0.21 nM
B21 | 10.4 ± 1.4 nM
B22 | 8.6 ± 0.4 nM
B23 | 8.56 ± 0.34 nM
B24 | 13.8 ± 1.2 nM
